From patent publication US9873895B2, “Production of 1,3-dienes by enzymatic conversion of 3-hydroxyalk 4-enoates and/or 3-phosphonoxyalk-4-enoates” (Scientist of Fortune S.A., priority 2011, dated 2018)

Experiment: 1,3-butadiene production from 3-phosphonoxypent-4-enoate by using a terpene synthase (headspace GC-FID)
Assay type: biochemical
Details: 5 mg/ml enzyme, 50 mM 3-phosphonoxypent-4-enoate, 37° C., 24 hours
Method: The reactions were performed in sealed vials. The total volume was 0.5 ml. Final concentrations were 5 mg/ml enzyme, 50 mM 3-phosphonoxypent-4-enoate, 4 mM DTT, 50 mM MgCl2, 50 mM KCl, 50 mM Tris-HCl buffer pH 7.5. The incubation was carried out at 37° C. for 24 h. The control reactions without enzyme or without substrate were performed in parallel under the same conditions.
One ml of the gaseous phase of the reaction was collected and analyzed by Gas-Chromatography with Flame Ionization Detector (GC-FID) ((Brucker GC 450) using a RTX-alumina column (Varian), with an isocratic elution at 130° C. and nitrogen as carrier gas at flow rate of 1.5 ml/min. The retention of commercial 1,3-butadiene (Sigma) in these conditions was 7.4 min.

B1: isoprene synthase from Pueraria montana var. lobata: purified His-tagged isoprene synthase (terpene synthase), Uniprot Q6EJ97, SEQ ID NO: 30, expressed in E. coli (protein, listed as Pueraria montana)
chain: MCATSSQFTQITEHNSRRSANYQPNLWNFEFLQSLENDLKVEKLEEKATKLEEEVRCMINRVDTQPLSLLELIDDVQRLGLTYKFEKDIIKALENIVLLDENKKNKSDLHATALSFRLLRQHGFEVSQDVFERFKDKEGGFSGELKGDVQGLLSLYEASYLGFEGENLLEEARTFSITHLKNNLKEGINTKVAEQVSHALELPYHQRLHRLEARWFLDKYEPKEPHHQLLLELAKLDFNMVQTLHQKELQDLSRWWTEMGLASKLDFVRDRLMEVYFWALGMAPDPQFGECRKAVTKMFGLVTIIDDVYDVYGTLDELQLFTDAVERWDVNAINTLPDYMKLCFLALYNTVNDTSYSILKEKGHNNLSYLTKSWRELCKAFLQEAKWSNNKIIPAFSKYLENASVSSSGVALLAPSYFSVCQQQEDISDHALRSLTDFHGLVRSSCVIFRLCNDLATSAAELERGETTNSIISYMHENDGTSEEQAREELRKLIDAEWKKMNRERVSDSTLLPKAFMEIAVNMARVSHCTYQYGDGLGRPDYATENRIKLLLIDPFPINQLMYV
modifications: His tag; var. lobata
With B1 the “ratio of butadiene produced in the presence of isoprene synthase versus in the absence of enzyme (butadiene peak areas)” value was “about 5 fold”.
